Results taken from patent US20190002548A1 (Chugai, published 2019).
Like-named read-outs stand apart in the source and are kept apart here.

T1: Human mature myostatin (myostatin mature form; recombinant mature myostatin) (human (mature form 100% identical in …, UniProt O08689 268-376 (mouse entry), biotinylated in the Biacore assay (immobilized on a streptavidin chip); not labelled in the HEK Blue Assay)
T1 sequence: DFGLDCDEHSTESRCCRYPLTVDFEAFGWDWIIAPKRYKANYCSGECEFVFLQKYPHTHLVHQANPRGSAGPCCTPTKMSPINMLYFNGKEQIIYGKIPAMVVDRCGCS


Tests used:
[1] = biological target: T1, Human mature myostatin (myostatin …); experiment: cell-based or functional assay
[2] = biological target: T1, Human mature myostatin (myostatin …); experiment: SPR (Biacore T200, 37 degrees C), biotinylated mature myostatin on streptavidin chip, 100 nM antibody, dissociation at pH 7.4 then pH 5.8
Description: (§1) pH dependent binding of MST0226 variants to human mature myostatin were determined at 37 degrees C. using Biacore T200 instrument (GE Healthcare). Biotinylated mature myostatin was immobilized onto streptavidin sensor chip (GE Healthcare). In order to assess pH dependent binding of MST0226 variants to mature myostatin, 100 nM of antibodies were injected over mature myostatin sensor surface at pH 7.4 (20 mM ACES, 150 mM NaCl, 1.2 mM CaCl₂), 0.05% Tween 20, 0.005% NaN₃), followed by dissociation at pH 7.4 and an additional dissociation phase at pH5.8. This is to assess the pH-dependent dissociation of antibody/antigen complexes formed at pH 7.4. The dissociation rate (kd) at both pH 7.4 and pH 5.8 buffer was determined by processing and fitting data using Scrubber 2.0 (BioLogic Software) curve fitting software. The ratio of (kd at pH5.8)/(kd at pH 7.4) gives indication of pH dependent binding, e.g. ratio>1 indicates pH dependent binding. The sensor surface was regenerated each cycle with 10 mM Glycine-HCl, pH 1.7.

[3] = biological target: T1, Human mature myostatin (myostatin …); experiment: SPR, Biacore T200, 37 degrees C; biotinylated mature myostatin on streptavidin chip; ratio of dissociation rates
Description: as §1

[4] = biological target: T1, Human mature myostatin (myostatin …); experiment: SPR, Biacore T200, 37 degrees C; biotinylated mature myostatin on streptavidin chip, 100 nM antibody bound at pH 7.4; dissociation phase at pH 7.4
Description: as §1

[5] = biological target: T1, Human mature myostatin (myostatin …); experiment: SPR, Biacore T200, 37 degrees C; biotinylated mature myostatin on streptavidin chip, 100 nM antibody bound at pH 7.4; dissociation phase at pH 5.8
Description: as §1

[6] = biological target: T1, Human mature myostatin (myostatin …); experiment: cell-based or functional assay; remark: listed apart in the source

Row | IC50 (read off the curve); HEK Blue Assay (SEAP reporter, OD620) [1] [ng/mL] | ratio of (kd at pH5.8)/(kd at pH 7.4) [2] | Ratio of (kd pH 5.8)/(kd pH 7.4) [3] | koff [4] [s⁻¹] | koff [5] [s⁻¹] | IC50 (read off the curve); HEK Blue Assay (SEAP reporter, OD620) [6] [ng/mL] | Binder
1 | ~7 | – | – | – | – | – | MS_MST0226Hc-G1m/MST0226La-kOMTC (antibody, human IgG1, kappa, V domains shown) VH: QSVEESGGRLVTPGGSLTLTCTVSGFSLSNYVMGWVRQAPGKGLEWIGIINISGSTYYASWAKGRFTISRTSTTVDLKMTSLTTEDTATYFCARGGDNFGYSYIDFNLWGPGTLVTVSS VL: AVVMTQTPASVSEPVGGTVTIKCQASQSISNELSWYRQKPGQPPKLLIYLASTLASGVPSRFKGSGSGTDFTLTISDLECADAATYYCQTYDGISSYGVAFGGGTKVVVER
2 | – | 17 | 26.2 | 9.7e-05 | 0.00254 | – | MS_M22601H1080-SG1/M22608L0837-SK1 (antibody, human IgG1, kappa, V domains shown, pH-dependent variant of MSLO00-SG1; also called MSLO02-SG1; LO02-SG1) VH: EVQLVESGGGLVQPGGSLRLSCAVSGFTLSHYVKGWVRQAPGKGLEWIGIINIEGSTYYASWAEGRFTISRDNSKNTVYLQMNSLRAEDTAVYFCARGHDNFGYSYHDFNLWGQGTLVTVSS VL: AVVMTQSPATLSLSPGERVTLSCQASESIHHELSWYQQKPGQPPKLLIYLASTLASGVPSRFKGSGSGTDFTLTISSLQPEDAATYYCQTYDGISHYGVAFGQGTKVEIKR
3 | ~4 | – | – | – | – | – | MS_MST0095Hf-G1m/MST0095Lf-kOMTC (antibody, human IgG1, kappa, V domains shown) VH: QSVEESGGRLVTPGTPLTLTCTASGFSLSSYYMSWVRQAPGKGLEWIGIISSRGSTYYASWAKGRFTISKTSTTVDLKITSPTTEDTATYFCARGVVLWGPGTLVTVSS VL: ALVMTQTPASVSAAVGGTVTINCQASESIYSGLAWYQQKPGQPPKLLIYSASTLASGVPSRFRGSGSGTEYTLTINDLECADAATYYCQAYDSTNWTFGGGTEVVVKR

Second part, the binder before the results:

Row | Binder | IC50 (read off the curve); HEK Blue Assay (SEAP reporter, OD620) [1] [ng/mL] | ratio of (kd at pH5.8)/(kd at pH 7.4) [2] | Ratio of (kd pH 5.8)/(kd pH 7.4) [3] | koff [4] [s⁻¹] | koff [5] [s⁻¹] | IC50 (read off the curve); HEK Blue Assay (SEAP reporter, OD620) [6] [ng/mL]
4 | MS_M22601H1020-SG1/M22608L0744-SK1 (antibody, human IgG1, kappa, V domains shown, pH-dependent variant of MSLO00-SG1; also called MSLO01-SG1; LO01-SG1) VH: EVQLVESGGGLVQPGGSLRLSCAVSGFTLSHYVKGWVRQAPGKGLEWIGIINISGSTYYASWAKGRFTISRDNSKNTVYLQMNSLRAEDTAVYFCARGHDNFGYSYHDFNLWGQGTLVTVSS VL: AVVMTQSPATLSLSPGERVTLSCQASQSIHHELSWYQQKPGQPPKLLIYLASTLASGVPSRFKGSGSGTDFTLTISSLQPEDAATYYCQTYDGISHYGVAFGQGTKVEIKR | – | 17 | 17.4 | 0.000131 | 0.00228 | –
5 | MS_M22601H1080-SG1/M22608L0846-SK1 (antibody, human IgG1, kappa, V domains shown, pH-dependent variant of MSLO00-SG1; also called MSLO04-SG1; LO04-SG1) VH: EVQLVESGGGLVQPGGSLRLSCAVSGFTLSHYVKGWVRQAPGKGLEWIGIINIEGSTYYASWAEGRFTISRDNSKNTVYLQMNSLRAEDTAVYFCARGHDNFGYSYHDFNLWGQGTLVTVSS VL: AVVMTQSPATLSLSPGERVTLSCQASQSIHHDLSWYQQKPGQPPKLLIYLASTLASGVPSRFKGSGSGTDFTLTISSLQPEDAATYYCQTYDGISHYGVAFGQGTKVEIKR | – | 17 | 25.9 | 4.19e-05 | 0.00109 | ~6
6 | MS_M22601H1082-SG1/M22608L0837-SK1 (antibody, human IgG1, kappa, V domains shown, pH-dependent variant of MSLO00-SG1; also called MSLO03-SG1; LO03-SG1) VH: EVQLVESGGGLVQPGGSLRLSCAVSGFTLSHYVKGWVRQAPGKGLEWIGIINIEGETYYASWAKGRFTISRDNSKNTVYLQMNSLRAEDTAVYFCARGHDNFGYSYHDFNLWGQGTLVTVSS VL: AVVMTQSPATLSLSPGERVTLSCQASESIHHELSWYQQKPGQPPKLLIYLASTLASGVPSRFKGSGSGTDFTLTISSLQPEDAATYYCQTYDGISHYGVAFGQGTKVEIKR | – | 17 | 26.8 | 0.00012 | 0.00321 | –
7 | MS_M22601H-SG1/M22608L-SK1 (antibody, human IgG1, kappa, V domains shown, Humanized form of MST0226-G1m; the non pH-dependent antibody; also called MSLO00-SG1; LO00-SG1) VH: EVQLVESGGGLVQPGGSLRLSCAVSGFTLSNYVMGWVRQAPGKGLEWIGIINISGSTYYASWAKGRFTISRDNSKNTVYLQMNSLRAEDTAVYFCARGGDNFGYSYIDFNLWGQGTLVTVSS VL: AVVMTQSPATLSLSPGERVTLSCQASQSISNELSWYQQKPGQPPKLLIYLASTLASGVPSRFKGSGSGTDFTLTISSLQPEDAATYYCQTYDGISSYGVAFGQGTKVEIKR | – | – | 0.8 | 7.82e-05 | 6.04e-05 | –
